The assay addresses CD26 on human monocyte-derived immature dendritic cells (human (endogenous in monocyte-derived iDCs)) (UniProt P27487).
UniProt P27487, sequence (P27487 whole entry): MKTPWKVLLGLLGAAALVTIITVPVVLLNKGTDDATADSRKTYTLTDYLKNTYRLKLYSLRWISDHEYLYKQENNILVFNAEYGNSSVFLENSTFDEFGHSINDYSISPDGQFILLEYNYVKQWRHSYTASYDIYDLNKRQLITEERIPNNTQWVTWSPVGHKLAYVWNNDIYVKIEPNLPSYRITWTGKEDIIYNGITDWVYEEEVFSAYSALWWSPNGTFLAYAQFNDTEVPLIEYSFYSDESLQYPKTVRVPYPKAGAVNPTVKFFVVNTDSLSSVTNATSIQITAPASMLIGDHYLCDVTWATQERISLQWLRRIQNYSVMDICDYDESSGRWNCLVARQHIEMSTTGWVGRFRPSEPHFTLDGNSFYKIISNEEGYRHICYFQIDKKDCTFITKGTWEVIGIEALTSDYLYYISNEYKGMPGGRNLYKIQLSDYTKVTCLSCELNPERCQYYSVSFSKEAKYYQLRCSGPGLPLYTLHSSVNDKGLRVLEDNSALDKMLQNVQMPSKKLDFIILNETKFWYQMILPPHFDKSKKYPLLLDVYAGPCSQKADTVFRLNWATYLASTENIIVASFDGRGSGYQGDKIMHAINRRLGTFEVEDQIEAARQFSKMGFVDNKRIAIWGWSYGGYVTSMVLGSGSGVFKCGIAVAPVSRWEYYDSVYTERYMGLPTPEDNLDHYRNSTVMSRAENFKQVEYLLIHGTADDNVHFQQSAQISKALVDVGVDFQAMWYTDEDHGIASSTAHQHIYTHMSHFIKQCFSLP

B1: Adenosine deaminase (ADA, EC 3.5.4.4) from calf intestine (enzyme)
chain: MAQTPAFNKPKVELHVHLDGAIKPETILYYGRKRGIALPADTPEELQNIIGMDKPLSLPEFLAKFDYYMPAIAGCREAVKRIAYEFVEMKAKDGVVYVEVRYSPHLLANSKVEPIPWNQAEGDLTPDEVVSLVNQGLQEGERDFGVKVRSILCCMRHQPSWSSEVVELCKKYREQTVVAIDLAGDETIEGSSLFPGHVKAYAEAVKSGVHRTVHAGEVGSANVVKEAVDTLKTERLGHGYHTLEDATLYNRLRQENMHFEVCPWSSYLTGAWKPDTEHPVVRFKNDQVNYSLNTDDPLIFKSTLDTDYQMTKNEMGFTEEEFKRLNINAAKSSFLPEDEKKELLDLLYKAYGMPSPASAEQCL
In the case of B1, the ADA-mediated upregulation of CD80 on iDCs (flow cytometry, 48 h, 2 uM ADA) after pre-incubation of the cells with the anti-CD26 mAb TA5.9 (directed against the ADA-binding epitope on CD26) is 0.64 in-fold and the ADA-mediated upregulation of CD83 on iDCs (flow cytometry, 48 h, 2 uM ADA) after pre-incubation of the cells with the anti-CD26 mAb TA5.9 (directed against the ADA-binding epitope on CD26) is 0.46 in-fold.
